Reference: US9658208B2, “Methods and G proteins for screening and identifying ligands of G protein-coupled receptors” (Fred Hutchinson Cancer Research Center, priority 2011, dated 2017)
Substitutions are numbered along the chain they refer to. Entries after “also recorded” stand apart in the source; their conditions may differ.

What was measured:
Format in all cases: cell-based
[1] = target: T1, M2 muscarinic acetylcholine receptor (M2AchR) (Rattus norvegicus, UniProt P10980); assay: CRE-SEAP reporter gene assay, coupling of Gαs-based chimeric G proteins with M2AchR (transient); details: 10 uM acetylcholine; for increase in SEAP activity: HEK-293 cells cotransfected with chimera, M2AchR and CRE-SEAP
T1 construct: expressed in transfected cells; host or cells: HEK-293
T1 sequence (P10980 1-466): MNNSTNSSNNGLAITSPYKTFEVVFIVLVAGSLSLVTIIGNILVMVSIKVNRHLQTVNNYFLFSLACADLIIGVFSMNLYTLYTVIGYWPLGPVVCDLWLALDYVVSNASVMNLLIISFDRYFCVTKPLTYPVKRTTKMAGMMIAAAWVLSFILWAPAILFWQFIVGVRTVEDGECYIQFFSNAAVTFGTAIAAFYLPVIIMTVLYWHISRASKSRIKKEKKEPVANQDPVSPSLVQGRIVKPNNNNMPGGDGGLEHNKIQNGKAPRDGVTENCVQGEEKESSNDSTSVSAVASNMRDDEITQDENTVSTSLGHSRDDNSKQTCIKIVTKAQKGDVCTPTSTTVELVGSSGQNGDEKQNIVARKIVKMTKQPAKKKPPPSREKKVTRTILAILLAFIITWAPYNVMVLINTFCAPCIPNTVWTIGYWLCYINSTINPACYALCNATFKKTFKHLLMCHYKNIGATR
Protocol: The constructs encoding chimeric G proteins were made by substituting C-terminal amino acids of Gαs (SEQ ID NO: 1) with the corresponding C-terminal amino acid sequences of other Gα subunits. A first set of Gαs-based chimeric G proteins was prepared by designing constructs encoding seven Gαs-Gαi chimeras in which the C-terminal 5, 11, 13, 28, 65, 84, or 131 amino acids of Gαs were substituted with the corresponding C-terminal amino acids from the […]. Briefly, HEK-293 cells were cotransfected with chimera constructs together with the CRE-SEAP reporter gene construct and a cDNA encoding the M2 muscarinic acetylcholine receptor (M2AchR), a GPCR that couples to Gαo but not to Gαs and inhibits cAMP production. The transfected cells were cultured in the presence or absence of acetylcholine and then assayed for SEAP activity.
A series of chimeric constructs were prepared in which the final 13 C-terminal amino acids of the Gαs subunit were substituted with the final 13 C-terminal amino acids from Gαo, Gαz, Gαt, Gαq, or Gα15 subunits. Also tested were the Gαs-Gαi-13 and a chimera containing the last 5 C-terminal amino acids of Gαk (Gαs-Gαk-5 (SEQ ID NO: 2)). These chimeric constructs were tested for coupling with M2AchR. […] The Gαs-Gαo-13 (SEQ ID NO: […]) and Gαs-Gα15-13 (SEQ ID NO: 7) allowed approximately 2-fold increases in SEAP activity.
(§1) Chimeric G protein cloning: An insert containing rat Gαs cDNA was cut out using the restriction enzymes SaII and HinDIII, and ligated into pcDNA3.1(−) cut with XhoI and HinDIII. The chimeric G proteins with the desired C-terminal amino acid substitutions were prepared by PCR using Gαs as a template. More specifically, Gαs was PCR amplified between an internal EcoRI site and the stop codon, with a 3′ HinDIII placed immediately after the stop codon. A different 3′ oligonucleotide was used for each Gαs chimera and contained a 39 bp sequence that encoded the substituted amino acids at the C-terminus selected from the donor Gα subunit.
M2AchR GPCR cloning: Rat M2AchR receptor was cloned by PCR from cDNA templates (ATCC) and ligated into pcDNA 3.1(−) for expression in mammalian cells.
CRE-SEAP Reporter Gene Assay: 0.5×10^5 HEK-293 cells (ATCC) were seeded into each well of a 96 well plate 24 hours prior to transfection. cDNAs encoding M2AchR, SEAP reporters (Mercury Pathway Profiling System, BD Biosciences), and G protein chimeras were transfected into HEK-293 cells using lipofectamine reagent (Invitrogen) according to the manufacturer's protocols. […]
Following transfection, the cells were maintained for 48 hours in 200 ul serum free media containing 10 uM acetylcholine (Sigma). […] Fluorescence was then measured using a CytoFluor 4000 multi well plate reader (Applied Biosystems).

[2] = system: nine GPCRs that do not bind to Gαs (serotonin 1b, neuropeptide Y1, leukotriene B4, dopamine D4, GNRH, UDP, calcium-sensing, T1R2/T1R3); assay: CRE-SEAP reporter gene assay, coupling of chimeric G proteins with a variety of GPCRs; details: HEK-293 cells, GPCR ligand 48 hours
Source text: (§2) The GPCRs examined were those that couple with Gαi/Gαo subunits (serotonin 1b, neuropeptide Y1, leukotriene B4, and dopamine D4), Gαq (GNRH, UDP, and calcium-sensing receptors), and the orphan mammalian sweet taste receptor complex (T1R2 and T1R3) with unknown coupling preference. The Gαs-based chimeric G proteins examined in this example were Gαs-Gαi-5, Gαs-Gαt-13 (SEQ ID NO: 3), Gαs-Gαo-13 (SEQ ID NO: 4), Gαs-Gαi-13 (SEQ ID NO: 5), Gαs-Gαz-6 (SEQ ID NO: 18), Gαs-Gα15-13 (SEQ ID NO: 7), Gαs-Gαk-5 (SEQ ID NO: 2), and Gαs-Gαq-13 (SEQ ID NO: 8). The chimeric G protein constructs were prepared as described herein. For the coupling assay, HEK-293 cells were cotransfected with each of the Gαs-based chimeric G protein constructs of interest together with the CRE-SEAP reporter gene construct and a cDNA encoding the GPCR to be tested. The transfected cells were cultured in the presence or absence of a GPCR ligand and then assayed for SEAP activity.
as §1, with “substitutions from the Gαi, Gαt, Gαo, Gαz, Gα15, Gαk, and Gαq” for “substitutions”
GPCR cloning: Mouse 5-HT1B, mouse dopamine D4, human GNRH, and human neuropeptide Y1 receptors were cloned by PCR from cDNA templates (ATCC) and ligated into pcDNA 3.1(−) (Invitrogen) for expression in mammalian cells. […]
(§3) Following transfection, the cells were maintained for 48 hours in 200 ul serum free media containing GPCR ligand. […] Fluorescence was then measured using a CytoFluor 4000 multi well plate reader (Applied Biosystems).

dopamine D4 receptor = target: T2, dopamine D4 receptor (Mus musculus, UniProt P51436); assay: CRE-SEAP reporter gene assay, coupling with dopamine D4; details: HEK-293 cells, 1 uM dopamine
T2 construct: expressed in transfected cells; host or cells: HEK-293
T2 sequence (P51436 1-387): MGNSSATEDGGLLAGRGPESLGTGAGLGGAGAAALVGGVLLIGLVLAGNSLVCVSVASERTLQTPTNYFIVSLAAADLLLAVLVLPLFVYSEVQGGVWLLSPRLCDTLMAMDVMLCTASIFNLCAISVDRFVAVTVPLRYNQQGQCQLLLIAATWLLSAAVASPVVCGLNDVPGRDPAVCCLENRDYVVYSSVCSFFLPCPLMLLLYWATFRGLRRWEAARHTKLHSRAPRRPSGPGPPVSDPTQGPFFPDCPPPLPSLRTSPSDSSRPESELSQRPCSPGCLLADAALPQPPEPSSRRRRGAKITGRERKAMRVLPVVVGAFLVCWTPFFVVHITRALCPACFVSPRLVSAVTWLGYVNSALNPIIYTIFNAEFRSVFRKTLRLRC
Source text: as §2
Chimeric G protein cloning: An insert containing rat Gαs cDNA was cut out using the restriction enzymes SaII and HinDIII, and ligated into pcDNA3.1(−) cut with XhoI and HinDIII. […]
as §3

B1: Gαs-Gαi-13: Gαs-based chimeric G protein, C-terminal 13 amino acids of Gαs substituted with those of Gαi (protein)
chain: MGCLGNSKTEDQRNEEKAQREANKKIEKQLQKDKQVYRATHRLLLLGAGESGKSTIVKQMRILHVNGFNGEGGEEDVPDYASNSDGEKATKVQDIKNNLKEAIETIVAAMSNLVPPVELANPENQFRVDYILSVMNVPNFDFPPEFYEHAKALWEDEGVRACYERSNEYQLIDCAQYFLDKIDVIKQADYVPSDQDLLRCRVLTSGIFETKFQVDKVNFHMFDVGGQRDERRKWIQCFNDVTAIIFVVASSSYNMVIREDNQTNRLQEALNLFKSIWNNRWLRTISVILFLNKQDLLAEKVLAGKSKIEDYFPEFARYTTPEDATPEPGEDPRVTRAKYFIRDEFLRISTASGDGRHYCYPHFTCAVDTENIRRVFNDCRDVIIKNNLKDCGLF
modifications: Chimeric protein
notes: Gαs-based chimeric G protein, C-terminal 13 amino acids of Gαs substituted with those of Gαi
For B1, the “ligand induced increases in SEAP activity mediated by M2AchR (in words)” value ([1]; HEK-293 cells) was “Particularly effective; also recorded: highest responses” and the “GPCRs tested that coupled to the chimera” value [2] was “seven of the nine”.

B2: Gαs-Gαo-13: Gαs-based chimeric G protein, final 13 C-terminal amino acids substituted with those of Gαo (protein)
chain: B1 chain with V382I, K385A, K389R, D390G, F394Y
modifications: Chimeric protein
notes: Gαs-based chimeric G protein, final 13 C-terminal amino acids substituted with those of Gαo
For B2, the “GPCRs tested that coupled to the chimera” value [2] was “seven of the nine” and the “coupling with dopamine D4 receptor” value (dopamine D4 receptor) was “permitted a response”.

B3: Gαs-Gαz-13: Gαs-based chimeric G protein, final 13 C-terminal amino acids substituted with those of Gαz (protein)
chain: B1 chain with K385Q, D390Y, C391I, F394C
modifications: Chimeric protein
notes: Gαs-based chimeric G protein, final 13 C-terminal amino acids substituted with those of Gαz
For B3, the “increase in SEAP activity” value [1] was “approximately 2 fold”.

B4: Gαs-Gα15-13: Gαs-based chimeric G protein, final 13 C-terminal amino acids substituted with those of Gα15 (protein)
chain: MGCLGNSKTEDQRNEEKAQREANKKIEKQLQKDKQVYRATHRLLLLGAGESGKSTIVKQMRILHVNGFNGEGGEEDVPDYASNSDGEKATKVQDIKNNLKEAIETIVAAMSNLVPPVELANPENQFRVDYILSVMNVPNFDFPPEFYEHAKALWEDEGVRACYERSNEYQLIDCAQYFLDKIDVIKQADYVPSDQDLLRCRVLTSGIFETKFQVDKVNFHMFDVGGQRDERRKWIQCFNDVTAIIFVVASSSYNMVIREDNQTNRLQEALNLFKSIWNNRWLRTISVILFLNKQDLLAEKVLAGKSKIEDYFPEFARYTTPEDATPEPGEDPRVTRAKYFIRDEFLRISTASGDGRHYCYPHFTCAVDTENIRRVFNDCRDSVLARYLDEINLL
modifications: Chimeric protein
notes: Gαs-based chimeric G protein, final 13 C-terminal amino acids substituted with those of Gα15
For B4, the “increase in SEAP activity” value [1] was “approximately 2 fold”.
